Patent US6682898B2, “High-throughput screening assays for modulators of STAT4 activity” (Tularik Inc., priority 1998, dated 2004)
Non-standard residues stand in square brackets, D forms with d. No end group written: not given here. pY = N[C@@H](Cc1ccc(OP(=O)(O)O)cc1)C(=O)O

How the values were obtained:
STAT6 = molecular target: T1, STAT6 (UniProt P42226 1-847, limits assumed); assay: binding affinity of the phosphorylated receptor peptide for STAT6; method not stated at the table (paragraph 32 speaks of IC50)
T1 construct: also called STAT6 polypeptide
T1 sequence (looked up): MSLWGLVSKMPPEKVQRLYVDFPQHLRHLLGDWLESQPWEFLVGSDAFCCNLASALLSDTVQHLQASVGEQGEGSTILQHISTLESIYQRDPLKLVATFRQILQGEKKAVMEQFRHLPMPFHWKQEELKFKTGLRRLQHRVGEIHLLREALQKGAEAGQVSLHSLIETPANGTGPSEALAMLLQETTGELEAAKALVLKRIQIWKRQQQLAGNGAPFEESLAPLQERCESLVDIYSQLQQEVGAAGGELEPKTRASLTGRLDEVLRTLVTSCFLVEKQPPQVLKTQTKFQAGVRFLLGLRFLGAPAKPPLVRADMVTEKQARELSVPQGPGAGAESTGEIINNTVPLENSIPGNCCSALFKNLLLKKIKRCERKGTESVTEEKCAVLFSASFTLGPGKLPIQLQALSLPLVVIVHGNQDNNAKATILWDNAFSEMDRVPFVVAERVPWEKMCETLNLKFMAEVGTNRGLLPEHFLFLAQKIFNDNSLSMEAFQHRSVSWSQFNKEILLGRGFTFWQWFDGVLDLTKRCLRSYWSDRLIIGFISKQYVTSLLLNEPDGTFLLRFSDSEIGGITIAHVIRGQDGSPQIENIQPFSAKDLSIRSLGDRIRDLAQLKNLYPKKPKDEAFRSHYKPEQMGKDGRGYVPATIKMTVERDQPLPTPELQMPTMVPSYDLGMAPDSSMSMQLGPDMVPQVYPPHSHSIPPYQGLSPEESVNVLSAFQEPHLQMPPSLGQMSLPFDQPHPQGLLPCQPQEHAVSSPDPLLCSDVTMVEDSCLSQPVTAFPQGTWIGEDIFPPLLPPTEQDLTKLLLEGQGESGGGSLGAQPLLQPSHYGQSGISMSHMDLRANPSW

STAT1 = molecular target: T2, STAT1 (Homo sapiens, UniProt P42224); assay: Chemiluminescence binding assay, signal to noise, STAT1; set-up: key: high signal relative to background = + + + +
T2 sequence (P42224 1-750): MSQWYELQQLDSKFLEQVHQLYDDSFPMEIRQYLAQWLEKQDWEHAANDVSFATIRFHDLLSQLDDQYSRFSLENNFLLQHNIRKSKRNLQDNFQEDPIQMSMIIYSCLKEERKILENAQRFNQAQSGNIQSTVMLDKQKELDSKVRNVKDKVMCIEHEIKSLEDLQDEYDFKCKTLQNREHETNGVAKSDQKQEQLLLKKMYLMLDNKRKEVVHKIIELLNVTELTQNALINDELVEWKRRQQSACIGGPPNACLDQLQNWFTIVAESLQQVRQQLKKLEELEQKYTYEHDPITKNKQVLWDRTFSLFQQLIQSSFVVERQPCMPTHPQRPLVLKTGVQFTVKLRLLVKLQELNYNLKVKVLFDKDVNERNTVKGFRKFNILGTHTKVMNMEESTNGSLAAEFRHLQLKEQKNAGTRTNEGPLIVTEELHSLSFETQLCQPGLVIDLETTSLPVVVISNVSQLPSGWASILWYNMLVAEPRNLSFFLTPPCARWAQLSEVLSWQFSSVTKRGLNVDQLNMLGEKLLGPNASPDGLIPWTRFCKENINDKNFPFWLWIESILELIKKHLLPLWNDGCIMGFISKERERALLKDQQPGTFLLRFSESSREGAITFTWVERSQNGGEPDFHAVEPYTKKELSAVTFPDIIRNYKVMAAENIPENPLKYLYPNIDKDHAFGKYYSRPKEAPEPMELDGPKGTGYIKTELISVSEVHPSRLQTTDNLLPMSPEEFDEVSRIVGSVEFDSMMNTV
Description: (§1) The assays of the invention can be conducted as an ELISA assay, using a 96-well microplate format or a larger format if desired. In one embodiment, a phosphotyrosine-containing receptor peptide is incubated with a protein which contains an SH2 domain (e.g., a STAT polypeptide) to provide opportunity for the SH2 domain containing protein to bind the peptide. The peptide is preferably bound to a tag, e.g., biotin, at the amino terminus of the peptide. There can be a spacer between the tag and the peptide. The solution is placed in wells of a 96-well microplate that are coated with a tag binder, e.g., streptavidin. Reduction of background is achieved by incubating, in a separate reaction, a primary antibody specific for the SH2 domain containing protein and a secondary antibody specific for the first antibody which is to bind to the SH2 domain containing protein. The secondary antibody has conjugated to it a substrate for detection. The antibodies bind and form a binding pair of antibodies Ab1 and Ab2. Ab1 remains available to bind the SH2 domain containing protein for which it is specific. Ab2 remains conjugated to a substrate for chemiluminescence detection later.
(§2) The solution containing binding pairs of primary and secondary antibodies bound together is then added to the microwells that already contain the bound streptavidin, biotinylated receptor peptide and an SH2 domain containing protein bound to the receptor peptide. […]
(§3) An alternate method for conducting the assay involves preincubating the SH2 domain containing protein with the primary antibody that is specific for the SH2 domain containing protein. […] After allowing time for the SH2-antibody complex to bind the biotinylated peptide bound to streptavidin, a second antibody specific for the first antibody is added, and the presence of the second antibody is detected as before, using a chemiluminescence reaction with either alkaline phosphatase detection or horse radish peroxidase detection. […]

STAT4 [1] = molecular target: T3, STAT4 (Homo sapiens, UniProt Q14765); assay: Chemiluminescence binding assay, signal to noise, STAT4; set-up: key: high signal relative to background = + + + +
T3 sequence (Q14765 1-748): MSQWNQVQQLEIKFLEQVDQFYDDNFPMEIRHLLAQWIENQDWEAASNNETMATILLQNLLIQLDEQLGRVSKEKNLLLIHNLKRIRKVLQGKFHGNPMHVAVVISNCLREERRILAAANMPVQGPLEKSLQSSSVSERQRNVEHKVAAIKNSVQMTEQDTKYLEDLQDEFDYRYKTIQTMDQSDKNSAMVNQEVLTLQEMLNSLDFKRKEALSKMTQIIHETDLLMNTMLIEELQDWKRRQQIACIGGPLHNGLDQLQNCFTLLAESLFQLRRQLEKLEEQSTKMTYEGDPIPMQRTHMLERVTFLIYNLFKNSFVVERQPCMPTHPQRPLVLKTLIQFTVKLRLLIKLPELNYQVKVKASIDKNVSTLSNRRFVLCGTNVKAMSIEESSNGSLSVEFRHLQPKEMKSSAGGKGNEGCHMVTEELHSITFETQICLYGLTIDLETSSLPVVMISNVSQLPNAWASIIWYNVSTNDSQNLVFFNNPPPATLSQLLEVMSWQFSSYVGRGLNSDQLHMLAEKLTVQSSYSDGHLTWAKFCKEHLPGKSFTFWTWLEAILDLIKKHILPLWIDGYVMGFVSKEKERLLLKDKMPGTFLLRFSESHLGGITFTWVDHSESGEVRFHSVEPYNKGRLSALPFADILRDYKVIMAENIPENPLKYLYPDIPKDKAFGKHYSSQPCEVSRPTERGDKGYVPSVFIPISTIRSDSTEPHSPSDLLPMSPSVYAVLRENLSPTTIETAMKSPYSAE
Description: as §1, §2, §3

STAT4 [2] = molecular target: T4, STAT4 (UniProt Q14765 1-748, limits assumed); assay: binding affinity of the phosphorylated receptor peptide for STAT4; method not stated at the table (paragraph 32 speaks of IC50)
T4 construct: also called STAT4 polypeptide
T4 sequence (looked up): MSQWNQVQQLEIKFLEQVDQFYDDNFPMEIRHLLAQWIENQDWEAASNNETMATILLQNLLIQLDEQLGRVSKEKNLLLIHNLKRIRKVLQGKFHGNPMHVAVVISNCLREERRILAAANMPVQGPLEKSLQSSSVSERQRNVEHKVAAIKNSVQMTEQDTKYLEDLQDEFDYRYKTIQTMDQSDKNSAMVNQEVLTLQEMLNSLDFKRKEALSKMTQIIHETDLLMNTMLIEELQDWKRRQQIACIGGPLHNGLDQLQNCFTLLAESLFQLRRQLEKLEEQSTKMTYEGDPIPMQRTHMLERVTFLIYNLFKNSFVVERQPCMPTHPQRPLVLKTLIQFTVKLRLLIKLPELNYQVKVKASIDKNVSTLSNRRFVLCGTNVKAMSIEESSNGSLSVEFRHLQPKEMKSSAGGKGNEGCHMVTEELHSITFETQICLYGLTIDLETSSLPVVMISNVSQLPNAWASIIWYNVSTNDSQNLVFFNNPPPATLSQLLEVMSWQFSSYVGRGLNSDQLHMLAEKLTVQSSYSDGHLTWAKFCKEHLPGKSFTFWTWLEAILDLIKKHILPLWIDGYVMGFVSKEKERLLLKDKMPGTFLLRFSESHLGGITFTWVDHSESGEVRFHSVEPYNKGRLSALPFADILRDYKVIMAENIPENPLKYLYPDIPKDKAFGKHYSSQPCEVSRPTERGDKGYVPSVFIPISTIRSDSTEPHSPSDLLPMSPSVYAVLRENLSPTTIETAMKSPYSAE

Molecule Ac-Y^PVPWQ-NH2 (peptide) has a BINDING AFFINITY (STAT6) of 1.5 µM.

In the case of “GY^PDMPHVL: phosphotyrosine receptor peptide for STAT4 (also binds STAT1) (G[pY]DMPHVL)”, the “signal relative to background, STAT1” value (STAT1; Ab1/Ab2 preincubation) is reported as “+ + + +”, the “signal relative to background, STAT1” value (STAT1; STAT1/Ab preincubation) is reported as “+ + + +” and the “signal relative to background, STAT1” value (STAT1; Standard assay) is reported as “+ +”. The “signal relative to background, STAT4” value (STAT4 [1]; Ab1/Ab2 preincubation) was “+ + + +”, the “signal relative to background, STAT4” value (STAT4 [1]; STAT4/Ab preincubation) was “+ + + +” and the “signal relative to background, STAT4” value (STAT4 [1]; Standard assay) was “+ +”.

B1: SHEGY^PLPSNID (IL-12 receptor) (peptide)
peptide: SHEG[pY]LPSNID
notes: Native IL-12 receptor-derived phosphopeptide; also called IL-12 receptor peptide
For B1, the “BINDING AFFINITY” value (STAT4 [2]) was 2.9 µM.

B2: SHEGY^PLPQNID (peptide)
peptide: SHEG[pY]LPQNID
For B2, the “BINDING AFFINITY” value (STAT4 [2]) was 0.39 µM.

B3: SHEGY^PLPNNID (peptide)
peptide: SHEG[pY]LPNNID
In the case of B3, the “BINDING AFFINITY” value (STAT4 [2]) is reported as 0.51 µM.

B4: SHEGY^PLPWNID (peptide)
peptide: SHEG[pY]LPWNID
With B4 the “BINDING AFFINITY” value (STAT4 [2]) was 0.93 µM.

B5: SHEGY^PLPHNID (peptide)
peptide: SHEG[pY]LPHNID
With B5 the “BINDING AFFINITY” value (STAT4 [2]) was 0.7 µM.
